Tested on: T1, Medicago sativa NAP1-like protein, 6×HIS-tagged, expressed in BL21 E. coli and purified on nickel agarose
T1 sequence: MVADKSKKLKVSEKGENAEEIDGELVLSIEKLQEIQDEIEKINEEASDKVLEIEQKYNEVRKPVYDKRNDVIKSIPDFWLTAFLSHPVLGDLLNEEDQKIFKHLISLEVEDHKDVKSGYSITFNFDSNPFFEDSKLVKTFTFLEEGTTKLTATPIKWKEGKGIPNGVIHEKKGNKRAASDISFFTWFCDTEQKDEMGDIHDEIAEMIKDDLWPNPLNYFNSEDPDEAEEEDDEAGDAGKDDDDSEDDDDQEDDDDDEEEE

Protein Phosphatase 2A (PP2A) catalytic subunits purified from rabbit skeletal muscle
PP2A activity on the phospho-histone H2A substrate (in vitro dephosphorylation of 32P-labelled substrate): already 2.5 mM concentration of the NAP1-like protein efficiently inhibited PP2A activity on the phospho-histonH2A substrate (50% decrease in activity) | PP2A dephosphorylation of glycogen phosphorylase (in vitro, 32P-labelled substrate): the NAP1-like protein had no influence on the dephosphorylation of the glycogen phosphorylase even at 500 mM concentration
